According to US20130289253A1:
Where “and” joins values, the source holds several entries; their conditions need not be identical. Equal values may be shown once. Read-outs that look alike come from different tables or passages of the source.

Columns and labels:
control (Fig. 49) [1] = target: control (Fig. 49)
control (Fig. 49) [2] = target: control (Fig. 49); remark: listed apart in the source

DR4 2×His DTB-HA306-318 complexes (DTB-streptactin purified monomers) (from UniProt P01903 26-216) (peptide-MHC)
% of cells in Q2 (multimer+ CD4+) (control (Fig. 49) [1]): 0.985% and 0.623%
% of cells in Q2 (multimer+ CD4+) (control (Fig. 49) [2]): 0.535% and 0.421%
